{
  "source": "the nanobody polyreactivity screen of Harvey et al. (2022)",
  "data": [
    {"assay": "yeast display, Sf9 membrane polyspecificity reagent, FACS + sequencing; frameworks hold sequencing errors", "procedure,_shortened": "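Synthetic nanobody libraries on Saccharomyces cerevisiae BJ5465 were galactose-induced for 36–48 hours, stained 1 hour at 4 °C with 10% biotinylated, detergent-solubilized Sf9 membrane reagent and enriched on streptavidin microbeads. FACS then separated cells into low and high (top ~1%) gates by anti-HA (expression) and streptavidin (reagent binding) fluorescence. Genes were colony-PCR amplified, MiSeq 2 × 250 sequenced and CDR-length filtered. A clone's polyreactivity label is that of its gate of origin.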", "values": [
      {"sequence": "QVQLVESGGGLVQAGGSLRLSCAASGFIFATNAMGWYIQAPGKERELVAAITWSGATTYYADSVKGRFTISRDNAKNTVYLQMNSLKPEDTAVYYCAARRYVYGSPYSTYRYGYWGQGTQVTVSS", "polyreactivity (PSR sort gate)": "high polyreactivity"},
      {"sequence": "QVQLVESGGGLVQAGGSLRLSCAASGSTFTLYAMGWYRQAPGKERELVAAITWRGGSTFYADSVKGRFTISRDNAKNTVYLQMNSLKPEDTAVYYCAADYYSYVVGRIDYWGQGTQVTVSS", "polyreactivity (PSR sort gate)": "high polyreactivity"},
      {"sequence": "QVQLVESGGGLVQAGGSLRLSCAASGSIFRGYTMGWYRQATGKERELVAAITSGDSTNYADSVKGRFTISRDNAKNTVYLQMNSLKPEDTAVYYCAAGRLYLPYLVYLTYSFVGYYYWGQGTQVTVSS", "polyreactivity (PSR sort gate)": "high polyreactivity"},
      {"sequence": "QDQLVESGVGLVHAGGSLRLSCAATGRIFTYNAMGWYRQAPWKEREVVAAITSSGGSTYYADSVKGRFTISRDNAKNTVYLQMNSLKQEDSAVSYCATVRRGRDYWGQGTQVTVSS", "polyreactivity (PSR sort gate)": "high polyreactivity"},
      {"sequence": "QVQLVESGGGLVQAGGSLRLSCAASGSTFSYNAMGWYRQAPGKERELVASISTSGGSTYYADSVKGRFTISRDNAKNTVYLQMNSLKPEDTAVYYCNAPTSDMYSDFDYWGQGTQVTVSS", "polyreactivity (PSR sort gate)": "low polyreactivity"},
      {"sequence": "QVQLVESGGGLVQAGGSLRLSCAASGRIFYGYAMGWYRQAPGKERELVAAIRWYVGNTYYADSVKGRFTISRDNAKNTVYLQMNSLKPEDTAVYYCNARTEYASSRYYYWGQGTQVTVSS", "polyreactivity (PSR sort gate)": "high polyreactivity"},
      {"sequence": "QVQLVESGGGLVQAGGSLRLSCAASGSTFYLYAMGWYRQAPGKERELVAAIRGGGITNYADSVKGRFTISRDNAKNTVYLQINSLKPEDTAVYYCAADSTLRGFDYWGQGTQVTVSS", "polyreactivity (PSR sort gate)": "high polyreactivity"},
      {"sequence": "QVQLVESGGGLVQAGGSLRLSCAASGRTFIRNAMGWYRQAPGKERELVAAITRSGGSTYYADSVKGRFTISRDNAKNTVYFQMNSLKPEDTAVYYCAAQPFYYLVGVPDDYWGQGTHVTVSS", "polyreactivity (PSR sort gate)": "low polyreactivity"},
      {"sequence": "QVQLVESGGGLVQAGGSLRISCAASGSIFPRYAMGWYRQAPGTERELVATISASGTDTYYADSVKGRFTISRDNAKNTVYLQMNSLKPEDTAVYYCAAGGYPGGEDYWGQGTQVTVSS", "polyreactivity (PSR sort gate)": "low polyreactivity"},
      {"sequence": "QVQLVETGGGLVQAGGSLRLSCEASGTIFTYAMGWYRQAPRKERELVAVISWSGASTYYADSVKGRLTISRDNAKNSVYLQMNSLKTEDTAVYYCAVYRYYKLVHLYGFDYWGQGTQVTVSS", "polyreactivity (PSR sort gate)": "high polyreactivity"},
      {"sequence": "QVQLVESGGGLVQAGGSLRLSCAASGSIFVGYAMGWYRQAPGKEREVVAAISSSGTSTYYADSVKGRFTISRDNAKNTVYLQMNSLKPEDTAVYYCNARWYVPAYEFDYWGHGTQVTVSS", "polyreactivity (PSR sort gate)": "low polyreactivity"},
      {"sequence": "HDQLVESGGGLVQAGGSLRLSCAASGSTFTINVMGWYRQAPGKERELVAAINGGGRTNYADSVKGRFTISRDNAKNTVYVQMNILKPEDTAVYYCAADGLSNVRQMDYWGQGTQVTVSS", "polyreactivity (PSR sort gate)": "low polyreactivity"},
      {"sequence": "QVQLVESGGGLVQAGGSLRLSCAASGSTFIYNTMGSYRQAPGKERELVATNTDSSDSTNYADSVKGRFTISRDNAKNTVYLQMNSLKPEDTAVYYCAADGEVDIATYPSQITDYDYWGQGTQVTVSS", "polyreactivity (PSR sort gate)": "low polyreactivity"},
      {"sequence": "QGQHVESGVGLVQAGGSLRLSCAASVFMFESNAMGWYRQAPGKERELVAAITSAGRTYYADSVKGRFTISRDNAKNTVYLQMNSLKPEETAVYYCNAPRSRYRYDYWGQGTQVTVSS", "polyreactivity (PSR sort gate)": "high polyreactivity"},
      {"sequence": "QVQLVESGGGLVQAGGSLRLSCAASGSTFGYAMGWNRQAPGKERELVAAINWSGSRTYYADSVKGRFTISRDNAKNTVYLQMNSLKPEDTAVYYCAVLYAGDSPDFDYWGQGSQVTVSS", "polyreactivity (PSR sort gate)": "high polyreactivity"},
      {"sequence": "QVQLVESGGGLVQAGGSLRLSCAASGLIFDWYAMGWYRQAPGKERELVADISYSGGSTNYADSVKGRFTISRDNAKNTVYLQMNSLKPEDTAVYYCAADDYWTPFGYWGQGTQVTVSS", "polyreactivity (PSR sort gate)": "low polyreactivity"},
      {"sequence": "QVQLVESGGGLVQAGGRLRLSCAASGITYEPYAMGWYRQAPGKERELVAAISRSGGSTYYADSVKGRFTISRDNAKNTVYLQMNSLKPVDTAVYYCNALRGTASRRGYYWGQGTQVTVSS", "polyreactivity (PSR sort gate)": "high polyreactivity"},
      {"sequence": "QVQLVESGGGLVQAGGSLRLSCAASGSIFSSYAMGWYRQAPGKERELVAAISSGGITYYADSVKGRFTISRDNAKNTVYLQMNSLKPEDTAVYYCAAVRRRGTTYDYWGQGTQVTVSS", "polyreactivity (PSR sort gate)": "high polyreactivity"},
      {"sequence": "QVQLVESGGGLVQAGGSLRLSCAASGTIFATYAMGWYRQAPGKERELVAAITSSDGSTNYADSVKGRFTISRDNAKNTVYLQMNSLKPEDTAVYYCAKDTPQSYFRYDYLGQGTQVTVSS", "polyreactivity (PSR sort gate)": "low polyreactivity"},
      {"sequence": "QVQLVESGGGLVQAGGSLRLSCDASGFIFLGNAMGWYRQAPGKERELVAAISSGGSTYADSVKGRFTISRDNAKNTVYLQMNSLKPEDTSVYYCAVERAFRAQNYHEYDYWGQGTQVTVSS", "polyreactivity (PSR sort gate)": "low polyreactivity"},
      {"sequence": "QFQLVESGGGLVQAGGSLRLSCAASGRIWWNAKGWYRQAPGNEREMVAAIRWSGGIKRYADSVKGRFTISRDNAKNTVYLQMNSLKREDTAVYYCDARLGGSIRSKFDYWGQGTQVTVSS", "polyreactivity (PSR sort gate)": "high polyreactivity"},
      {"sequence": "QVQLVESGGGLVQAGGSLRLSCAASGRIFTGNTMGWYRQAPGKERELVATINSNGGSTYYADSVKGRFTISRDNAKNTVYLQMNSLKPEDTAVYYCAVVRNYVSRYRFYYWGQGTQVTVSS", "polyreactivity (PSR sort gate)": "high polyreactivity"},
      {"sequence": "HVQLVESGGGLVQAGGSLRFSCAASGFIFTNYAMGWYRQAPGTERELVAAISFSGSSTYYADSVKGRFTISRDNAKNTVYLQMNSLNPEDTAVYYCAVDGVPSSFSHDYWGQGTKVTVSS", "polyreactivity (PSR sort gate)": "low polyreactivity"},
      {"sequence": "QVQLVESGGGLVQAGGSLRLSCAASGRIFYYNDMGWYRQAPGKERELVATITIGNSTNYADSVKGRFTISRDNAKNTVYLQMNSLKPEDTAVYYCNADYSDVTTGDWRYENDYWGQGTQVTVSS", "polyreactivity (PSR sort gate)": "low polyreactivity"},
      {"sequence": "QVQLVESGGGLVQAGGSLRLSCAASGSTFSFYAMGWYRQAPGKERELVAAIRFSGTSTYADSVKGRFTISRDNAKNTVYLQMNSLKPEDTAVYYCAARRAVFYSQRYYRYDYWGQGTQVTVSS", "polyreactivity (PSR sort gate)": "high polyreactivity"},
      {"sequence": "QVQLVESGGGLVQAGGSLRLSCAASGFIFSIYAMGWYRQAPGKERELVATITYSGGSTYYADSVKGRFTISRDNAKNTVYLQMNSLKPEDTAVYYCNALSKGYYTIGGYSWGQGTQVTVSS", "polyreactivity (PSR sort gate)": "low polyreactivity"},
      {"sequence": "QVQLEDSGGGLVQAGGSLRLSCAASGRIFYAYAMGWYRPAPGKEREFVASISGSGGSTYYADSVKGRFTISRDNAKNTVYLQMNSLKPEDTAVYYCAKRYPFFSSGLSPYNYWGQGTQVTVSS", "polyreactivity (PSR sort gate)": "high polyreactivity"},
      {"sequence": "QVQLVESGGGLVQAGGSLRLSCAASGSIFFPNAMGWYRQAPGKERELVAAIRGGTNTYYADSVKGRFTISRDNAKTTVYLQLNSLKPEDTAVYYCAARRSSHWFTYDYWGQGTQVTVSS", "polyreactivity (PSR sort gate)": "high polyreactivity"},
      {"sequence": "QVQLVESGGGLVQAGGSLRLSCAASGSTFTGNAMGWYRPAPGKERELVADITWSDGSTDYADSVKGRFTISRDNAKNTVYLQMNSLKPDDTAVYYCNARITYYVGTAWYDYWGQGTQVTVSS", "polyreactivity (PSR sort gate)": "low polyreactivity"},
      {"sequence": "QVQLEESGGGLVQAGGSLRLSCAASGSIFYYYVMGWCRQAPGKERELVAAISSGGGTNYADSVKGRFTISRDNAKNTVYLQMNSLKPEDTAVYYCAKASAYGLANDYDYWGQGTQVTVSS", "polyreactivity (PSR sort gate)": "low polyreactivity"},
      {"sequence": "QVQLVESGGGLVQAGGSLRLSCAASGFIFTRYAMGWYRQAPGKERELVAAITRSGGRTYYADSVKGRFTISRDNAKNTVYLQMNSLKPEDTAVYYCAAEGSVGLYGLIMHYWGQGTQVTVSS", "polyreactivity (PSR sort gate)": "high polyreactivity"},
      {"sequence": "QVQLVESGGGLVQAGGSLRLSCAASGSIVVPYTMGWYRQAPGKEMELVAAINSSDDSTFYADSVKGRFTISRENAKNTVYIKMNSLKPEDTAVYYCNATGYARWYTGDYWGQGTQVTVSS", "polyreactivity (PSR sort gate)": "low polyreactivity"}
    ]}
  ]
}
